Reference: paper PMC9844003
Positions count from the first letter of the chain named. Names may count otherwise.

B1: BC31M4 (hIgG1 form) L:H38R; L:H107R (protein)
chain 1: QVQLVQSGAEVKKPGASVKVSCKASGYTFTSYGISWVRQAPGQGLEWMGWISAYNGNTNYAQKLQGRVTMTTDTSTSTAYMELRSLRSDDTAVYYCARGAVYFDYWGQGTLVTVSS
chain 2: EIVLTQSPATLSLSPGERATLSCRASQSLSRNRLAWYQQKPGQPPRLLIHWASTRESGVPDRFSGSGSGTDFTLTISSLQAEDVAVYYCQQRTQNTWTFGQGTKVEIK
B2: BC31M4 (hIgG1 form) (antibody, V domains shown)
VH: B1 chain 1
VL: B1 chain 2 with R33H, R92H
B3: BC31M4 (hIgG1 form) L:H38R; L:H55R (protein)
chain 1: B1 chain 1
chain 2: B1 chain 2 with H50R, R92H
B4: BC31M4 (hIgG1 form) L:H55R; L:H107R (protein)
chain 1: B1 chain 1
chain 2: B1 chain 2 with R33H, H50R
B5: BC31M4 (hIgG1 form) L:H38R; L:H55R; L:H107R (protein)
chain 1: B1 chain 1
chain 2: B1 chain 2 with H50R

Legend:
[1] = biological target: extracellular domain of CD47 fused to a His(×6)-Avi-tag; assay: ELISA; settings: chain shown with the change, read off a plot
extracellular domain of CD47 fused to a His(×6)-Avi-tag, sequence (chain, as listed by the source): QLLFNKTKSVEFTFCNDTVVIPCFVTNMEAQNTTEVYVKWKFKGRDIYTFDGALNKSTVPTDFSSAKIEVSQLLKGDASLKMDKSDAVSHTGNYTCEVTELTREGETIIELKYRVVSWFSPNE

[2] = biological target: extracellular domain of CD47 fused to a His(×6)-Avi-tag (human); assay: ELISA; CD47-ECD coated on plates; serially diluted IgGs, detected with anti-human IgG Fc-HRP; pH 6.8 (of a series from pH 6.2 to 7.6)
[3] = biological target: extracellular domain of CD47 fused to a His(×6)-Avi-tag (human); assay: ELISA; CD47-ECD coated on plates; serially diluted IgGs, detected with anti-human IgG Fc-HRP; pH 7.6 (of a series from pH 6.2 to 7.6)

| Binder | EC50 ([1]; pH 6.8, parent: est. -1.3) | EC50 ([1]; pH 7.4, parent: est. -0.1) | EC50 [2] [nM] | EC50 [3] [nM] | response ([1]; pH 6.8, highest antibody concentration, Log[Ab] (nM) about 3.5) [OD450] |
| --- | --- | --- | --- | --- | --- |
| B1 | 1.4 log10(nM) | 1.9 log10(nM) | – | – | – |
| B2 | – | – | 0.03 | 2.12 | – |
| B3 | -0.9 log10(nM) | -0.1 log10(nM) | – | – | – |
| B4 | 0.4 log10(nM) | 1.3 log10(nM) | – | – | – |
| B5 | – | – | – | – | 2 |
